Biological target: T1, GFP-HO-1 (heme oxygenase 1 with an N-terminal GFP2 tag) (human, UniProt P09601 1-288)
T1 sequence (looked up): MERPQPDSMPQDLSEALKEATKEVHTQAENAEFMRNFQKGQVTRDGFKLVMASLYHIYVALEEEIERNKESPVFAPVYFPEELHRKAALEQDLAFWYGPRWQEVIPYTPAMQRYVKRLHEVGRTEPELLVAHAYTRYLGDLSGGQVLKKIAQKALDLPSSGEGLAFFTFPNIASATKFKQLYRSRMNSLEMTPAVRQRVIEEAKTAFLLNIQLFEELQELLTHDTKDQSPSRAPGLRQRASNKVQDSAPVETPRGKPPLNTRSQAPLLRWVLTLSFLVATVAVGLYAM
Experiment: cell-based or functional assay

B1: POR-Rluc (NADPH-cytochrome P450 reductase with a C-terminal Rluc tag) (enzyme, human, UniProt P16435 1-677, looked up)
chain: MGDSHVDTSSTVSEAVAEEVSLFSMTDMILFSLIVGLLTYWFLFRKKKEEVPEFTKIQTLTSSVRESSFVEKMKKTGRNIIVFYGSQTGTAEEFANRLSKDAHRYGMRGMSADPEEYDLADLSSLPEIDNALVVFCMATYGEGDPTDNAQDFYDWLQETDVDLSGVKFAVFGLGNKTYEHFNAMGKYVDKRLEQLGAQRIFELGLGDDDGNLEEDFITWREQFWPAVCEHFGVEATGEESSIRQYELVVHTDIDAAKVYMGEMGRLKSYENQKPPFDAKNPFLAAVTTNRKLNQGTERHLMHLELDISDSKIRYESGDHVAVYPANDSALVNQLGKILGADLDVVMSLNNLDEESNKKHPFPCPTSYRTALTYYLDITNPPRTNVLYELAQYASEPSEQELLRKMASSSGEGKELYLSWVVEARRHILAILQDCPSLRPPIDHLCELLPRLQARYYSIASSSKVHPNSVHICAVVVEYETKAGRINKGVATNWLRAKEPAGENGGRALVPMFVRKSQFRLPFKATTPVIMVGPGTGVAPFIGFIQERAWLRQQGKEVGETLLYYGCRRSDEDYLYREELAQFHRDGALTQLNVAFSREQSHKVYVQHLLKQDREHLWKLIEGGAHIYVCGDARNMARDVQNTFYDIVAELGAMEHAQAVDYIKKLMTKGRYSLDVWS
apparent Km^POR•HO-1 from HO-1-mediated heme degradation against POR concentration 0.025-0.5 μM; purified recombinant HO-1 (0.1 μM) and POR in DLPC, in the presence of 0.1 μM CYP1A2: 0.024 µM

— PMC7948974, “Heme oxygenase-1 affects cytochrome P450 function through the formation of heteromeric complexes: Interactions between CYP1A2 and heme oxygenase-1” (The Journal of Biological Chemistry, 2020)
